The source of these data is patent publication US20020183249A1, “Method of identifying inhibitors of CDC25” (priority 1999, published 2002).

One experiment concerns the target Cdc25A (human). The experiment can be described thus: cell-based or functional assay.
The target of the next experiment is T1, Cdc25A (Homo sapiens, UniProt P30304).
T1 sequence (P30304 1-524): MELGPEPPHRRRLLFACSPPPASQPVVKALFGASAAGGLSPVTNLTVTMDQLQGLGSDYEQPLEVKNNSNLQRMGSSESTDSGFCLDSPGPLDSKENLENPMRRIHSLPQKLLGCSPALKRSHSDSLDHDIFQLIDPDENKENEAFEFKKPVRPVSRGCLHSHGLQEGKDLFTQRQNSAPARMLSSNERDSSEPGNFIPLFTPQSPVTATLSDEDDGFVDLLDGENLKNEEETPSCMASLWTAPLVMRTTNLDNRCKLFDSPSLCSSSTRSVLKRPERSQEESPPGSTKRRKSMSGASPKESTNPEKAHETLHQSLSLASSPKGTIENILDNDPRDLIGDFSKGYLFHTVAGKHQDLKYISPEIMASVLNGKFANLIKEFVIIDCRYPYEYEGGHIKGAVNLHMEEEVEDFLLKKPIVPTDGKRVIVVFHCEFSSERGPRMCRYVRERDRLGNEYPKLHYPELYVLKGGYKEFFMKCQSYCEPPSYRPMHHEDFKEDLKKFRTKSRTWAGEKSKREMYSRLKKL
The experiment can be described thus: Inhibition of Cdc25A enzymatic activity (IC50). The experiment is classed as biochemical. An excerpt: A compound which is identified by one of the foregoing methods as a potential inhibitor of Cdc25 can then be obtained, for example, by synthesis or from a compound library, and assessed for the ability to inhibit Cdc25 in vitro. Such an in vitro assay can be performed as is known in the art, for example, by contacting Cdc25 in solution with the test compound in the presence of a substrate for Cdc25. The rate of substrate transformation can be determined in the presence of the test compound and compared with the rate in the absence of the test compound. Suitable assays for Cdc25 biological activity are described in U.S. Pat. Nos. 5,861,249; 5,695,950; 5,443,962; and 5,294,538, the teachings of each of which are hereby incorporated by reference herein in their entirety.

Like-named read-outs stand apart in the source and are kept apart here. Non-standard residues stand in square brackets, D forms with d. Residues, ends and D or L forms follow the SMILES beside them. *: point of attachment. Phe(4-CH2SO3H) = N[C@@H](Cc1ccc(CS(=O)(=O)O)cc1)C(=O)O; Bta = N[C@@H](Cc1csc2ccccc12)C(=O)O; Aad = N[C@@H](CCCC(=O)O)C(=O)O; X1 = CCOc1ccc2ccccc2c1C(=O)*; X2 = COc1ccc2ccccc2c1C(=O)*; αMeP = C[C@@]1(C(=O)O)CCCN1; Nle = CCCC[C@H](N)C(=O)O; Nva = CCC[C@H](N)C(=O)O; NHtBu = CC(C)(C)N*; OtBu = CC(C)(C)O*

Take “2-CH3O-1-naphthyl-CO-Smp-Glu-Glu-Bta-Aad-NHtBu (peptide)”: the IC50 in the experiment with Cdc25A (human) was found to be 5 µM.
Same read-out and setting: the result for “2-EtO-naphthyl-1-CO-Smp-Glu(tBu)-Pro-Bta-Aad-NHtBu (peptide)” reads 1.1 µM.
In the experiment with Cdc25A (human), “2-EtO-naphthyl-1-CO-Smp-Glu-Pro-Bta-Aad-NHtBu (peptide)” had an IC50 of 2.2 µM and an increase in potency compared to cdc1671 of 2 fold.
As to “2-EtO-naphthyl-1-CO-Smp-Nle-Pro-Bta-Aad-NHtBu (peptide)”, the IC50 with Cdc25A (human) was found to be 2.5 µM.
The same measure, in the same setting: the result for “2-EtO-naphthyl-1-CO-Smp-Nva-MePro-Bta-Aad-NHtBu (peptide)” reads 1.5 µM.
Regarding `COc1ccc2ccccc2c1C(=O)N[C@@H](Cc1ccc(CS(=O)(=O)O)cc1)C(=O)N[C@@H](CCC(=O)O)C(=O)N[C@@H](CCC(=O)O)C(=O)N[C@@H](Cc1csc2ccccc12)C(=O)N[C@@H](CCCC(=O)O)C(=O)NC(C)(C)C` [cdc1671, 2-CH3O-1-naphthyl-CO—Smp—Glu—Glu—Bta—Aad—NHtBu] (X2-[Phe(4-CH2SO3H)]EE[Bta][Aad]-NHtBu), the IC50 on Cdc25A (inhibits Cdc25A, read-out: IC50) amounted to 5 µM.
Turning to `CCOc1ccc2ccccc2c1C(=O)N[C@@H](Cc1ccc(CS(=O)(=O)O)cc1)C(=O)N[C@@H](CCC(=O)OC(C)(C)C)C(=O)N1CCC[C@H]1C(=O)N[C@@H](Cc1csc2ccccc12)C(=O)N[C@@H](CCCC(=O)O)C(=O)NC(C)(C)C` [cdc1719] (X1-[Phe(4-CH2SO3H)]E(OtBu)P[Bta][Aad]-NHtBu), it took 1.1 µM to reach half-maximal inhibition at Cdc25A (IC50).
The same measure, in the same setting: the result for `CCCC[C@H](NC(=O)[C@H](Cc1ccc(CS(=O)(=O)O)cc1)NC(=O)c1c(OCC)ccc2ccccc12)C(=O)N1CCC[C@H]1C(=O)N[C@@H](Cc1csc2ccccc12)C(=O)N[C@@H](CCCC(=O)O)C(=O)NC(C)(C)C` [cdc1748] (X1-[Phe(4-CH2SO3H)][Nle]P[Bta][Aad]-NHtBu) reads 2.5 µM; that for `CCC[C@H](NC(=O)[C@H](Cc1ccc(CS(=O)(=O)O)cc1)NC(=O)c1c(OCC)ccc2ccccc12)C(=O)N1CCC[C@@]1(C)C(=O)N[C@@H](Cc1csc2ccccc12)C(=O)N[C@@H](CCCC(=O)O)C(=O)NC(C)(C)C` [cdc1749] (X1-[Phe(4-CH2SO3H)][Nva][αMeP][Bta][Aad]-NHtBu), 1.5 µM.
In turn, `CCOc1ccc2ccccc2c1C(=O)N[C@@H](Cc1ccc(CS(=O)(=O)O)cc1)C(=O)N[C@@H](CCC(=O)O)C(=O)N1CCC[C@H]1C(=O)N[C@@H](Cc1csc2ccccc12)C(=O)N[C@@H](CCCC(=O)O)C(=O)NC(C)(C)C` [cdc1763] (X1-[Phe(4-CH2SO3H)]EP[Bta][Aad]-NHtBu) registered an IC50 on Cdc25A of 2.2 µM. The “increase in potency compared to cdc1671” value on Cdc25A (Cdc25A IC50 relative to cdc1671) was “two-fold”.
